Source: article PMC11868609 (Communications Biology, 2025)
Values joined by “and” are separate entries in the source; they are usually repeats but may differ in a detail not shown here. Equal values may be shown once.

B1: VapB3 antitoxin (natural protein)
chain: MLSRRTKTIVVCTLVCMARLNVYVPDELAERARARGLNVSALTQAAISAELENSATDAWLEGLEPRSTGARHDDVLGAIDAARDEFEA
B2: VapB35 antitoxin (natural protein)
chain: MNEVSIRTLNQETSKVLARVKRGEEINLTERGKVIARIIPASAGPLDSLISTGSVQPARVHGPAPRPTIPMRGGLDSGTLLERMRAEERY
B3: VapC3 toxin (natural protein)
chain: MRASPTSPPEQVVVDASAMVDLLARTSDRCSAVRARLARTAMHAPAHFDAEVLSALGRMQRAGALTVAYVDAALEELRQVPVTRHGLSSLLAGAWSRRDTLRLTDALYVELAETAGLVLLTTDERLARAWPSAHAIG

Columns and labels:
VapC35 toxin [1] = target: T1, VapC35 toxin (M. tuberculosis, UniProt P9WF67 1-135); assay: SEC-MALS
T1 sequence: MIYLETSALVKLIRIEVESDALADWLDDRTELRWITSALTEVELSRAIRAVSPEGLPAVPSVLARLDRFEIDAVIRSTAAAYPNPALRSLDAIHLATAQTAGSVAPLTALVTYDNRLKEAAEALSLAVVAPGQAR

VapC3 toxin [2] = target: B3; assay: SEC-MALS
VapC35 toxin [3] = target: T1, VapC35 toxin; assay: MST
VapC3 toxin [4] = target: B3; assay: MST
SEC-MALS = target: the molecule itself; assay: SEC-MALS

| Binder | stoichiometry N (VapC35 toxin [1]) | stoichiometry N (VapC3 toxin [2]) | Kd (VapC35 toxin [3]) [nM] | Kd (VapC3 toxin [4]) [nM] | stoichiometry N (SEC-MALS) [subunits] |
| --- | --- | --- | --- | --- | --- |
| B1 | 0.5 antitoxin chains per toxin chain (2:4) and 1 antitoxin chains per toxin chain (4:4) | 0.5 antitoxin chains per toxin chain (2:4) and 1 antitoxin chains per toxin chain (4:4) | ~14 | ~7 | – |
| B2 | 0.5 antitoxin chains per toxin chain (2:4) and 1 antitoxin chains per toxin chain (4:4) | – | 1 | – | – |
| B3 | – | – | – | – | 2 |
